Tests used:
[1] = molecular target: T1, interaction between BclX(L) and Bak (Homo sapiens, UniProt Q07817); assay: Time course of fluorescent foci after ABT-737 addition, BclX(L)/Bak (Example 24); assay type: cell-based; details: 293 cells co-expressing p62(PB1)-BclX(L) and Bak-AG; 15 μM
T1 construct: region having the 1st to 209th amino acids of the BclX(L) protein; expressed in transfected cells; host or cells: 293 cells, transient
Procedure: (§1) The plasmid DNAs were mixed in equal amounts in the following combinations, and the genes were introduced into 293 cells by the same method as that described in Example 2: • a combination of pp62(PB1)-BclX(L) with pBak-hAG; and • a combination of pp62(PB1)-BclX(L) with phAG-Bax.
(§2) Then, to the 293 cells into these plasmid DNAs were introduced, ABT-737 (manufactured by Santa Cruz Biotechnology, Inc.) was added to the final concentration of 15 μM, and images were obtained by the same method as that described in Example 2 every 30 minutes for the cells co-expressing p62(PB1)-BclX(L) and Bak-AG, and every 5 minutes for the cells co-expressing p62(PB1)-BclX(L) and AG-Bax. On the basis of the obtained images, analysis was performed by the same method as that described in Example 11, and a graph was prepared by plotting a total fluorescence intensity of fluorescent foci (assemblies) against time. Note that, in the graph, the x axis represents time (minutes), provided that time when the drug was added is 0, and the y axis represents the total fluorescence intensity of fluorescent foci (assemblies).

[2] = molecular target: T2, interaction between BclX(L) and Bax (Homo sapiens, UniProt Q07817); assay: Time course of fluorescent foci after ABT-737 addition, BclX(L)/Bax (Example 24); assay type: cell-based; details: 293 cells co-expressing p62(PB1)-BclX(L) and AG-Bax; 15 μM
T2 construct: region having the 1st to 209th amino acids of the BclX(L) protein; expressed in transfected cells; host or cells: 293 cells, transient
T2 sequence (Q07817 1-209): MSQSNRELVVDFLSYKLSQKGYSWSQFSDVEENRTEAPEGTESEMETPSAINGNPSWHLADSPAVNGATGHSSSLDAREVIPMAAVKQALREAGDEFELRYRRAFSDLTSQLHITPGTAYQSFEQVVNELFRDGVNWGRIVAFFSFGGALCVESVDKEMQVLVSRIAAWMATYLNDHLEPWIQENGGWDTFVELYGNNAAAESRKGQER
Procedure: as §1, §2

[3] = system: interaction between an ERK substrate and Pin1(ww); assay: Time course of fluorescent foci after EGF and U0126, 293 cells (Example 27); assay type: cell-based
Procedure: On the next day, EGF (manufactured by SIGMA CO.) was added to the cells to the final concentration of 50 ng/ml. Further, 14 minutes thereafter, U0126 was added to the cells to the final concentration of 10 μM. Meanwhile, the cell observation was started 2 minutes before the EGF addition, and the observed images were obtained every 15 seconds. The obtained images were used to analyze a total fluorescence luminance of fluorescent foci (assemblies) by the same method as that described in Example 11, and a graph was prepared by plotting the total fluorescence luminance against time.

[4] = system: interaction between calmodulin and M13 peptide of myosin light chain kinase 2; details: 200 μM
Procedure: pCalmodulin-hAG and pM13peptide-p62(PB1) were mixed in equal amounts and introduced into HeLaS3 cells by the same method as that described in Example 1. Then, 200 μM histamine (manufactured by Wako Pure Chemical Industries, Ltd.) was added thereto, and fluorescence images were captured over time.

[5] = system: interaction between Rac1 and PBD; assay: Localization of fluorescent foci after mevastatin, Rac1/PBD (Example 22); assay type: cell-based; details: cells co-expressing AG-Rac1 and p62(PB1)-PBD; 10 μM; 15 hours
Procedure: (§3) Then, each of the following combinations of the plasmid DNAs was mixed in equal amounts and introduced into cells by the same method as in Example 2: • a combination of phAG-Rac1 with pp62(PB1)-PBD; and • a combination of phAG-Rac1 with pRhoGDI-p62(PB1). Then, after culturing for 6 hours after the transfection, an inhibitor mevastatin (Enzo Life Sciences, Inc.) against geranylgeranyl group modification was added to the final concentration of 10 μM, allowed for further culturing for 15 hours, and observed.

[6] = system: interaction between Rac1 and RhoGDI; assay: Fluorescent foci after mevastatin, Rac1/RhoGDI (Example 22); assay type: cell-based; details: cells co-expressing AG-Rac1 and RhoGDI-p62(PB1); 10 μM; 15 hours
Procedure: as §3

[7] = molecular target: T3, mTOR(FRB) and FKBP12 interaction (Homo sapiens, UniProt P42345+P62942); assay: Degree of fluorescent focus (assembly) formation after rapamycin, fluorescent proteins fused to mTOR(FRB) (Example 8, Table 1); assay type: cell-based; set-up: key to degree of fluorescent focus formation, Tankyrase (SAM): +++: fluorescent foci were observed in 50% or more of the HeLaS3 cells; ++: fluorescent foci were observed in 50% or less of the HeLaS3 cells; +: fluorescent foci were observed in 293T cells expressing a larger amount of proteins than that in the HeLaS3 cells; details: fluorescent protein fused to mTOR(FRB); for degree of fluorescent focus formation, DGKd (SAM): with FKBP12-DGKd(SAM); for degree of fluorescent focus formation, TEL (SAM): with FKBP12-TEL(SAM); for degree of fluorescent focus formation, Tankyrase (SAM): with FKBP12-Tankyrase(SAM), some combinations in 293T cells; for degree of fluorescent focus formation, P62 (PB1): with p62(PB1)-FKBP12
T3 construct: region having the 2025th to 2114th amino acids of the mTOR protein; expressed in transfected cells; host or cells: HeLaS3; 293T for some combinations with FKBP12-Tankyrase(SAM)
T3 sequence (P42345 2025-2114): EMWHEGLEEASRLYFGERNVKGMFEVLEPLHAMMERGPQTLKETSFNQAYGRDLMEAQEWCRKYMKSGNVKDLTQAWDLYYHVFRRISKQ
T3 sequence (P62942 whole entry, the tested form may be a part): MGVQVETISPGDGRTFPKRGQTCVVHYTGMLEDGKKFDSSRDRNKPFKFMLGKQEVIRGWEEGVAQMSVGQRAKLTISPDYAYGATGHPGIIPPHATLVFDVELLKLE
Procedure: Note that plasmid DNAs encoding fusion proteins composed of mTOR(FRB) and the corresponding fluorescent proteins were prepared as appropriate by the same method as that described in Example 2. Moreover, regarding the combinations of FKBP12-Tankyrase(SAM) with mKO2, mKeima, mMiCy1, mKO1, MiCy1, and TGuv, the test was conducted by introducing the genes into 293T cells. Specifically, the 293T cells were cultured in DMEM High glucose (manufactured by SIGMA ALDRICH CO.) containing 10% FBS (manufactured by Equitech-Bio Inc.). Moreover, the 293T cells were seeded onto an 8-well chamber (manufactured by Nunc A/S) 6 hours before the plasmid DNAs were introduced. Further, at the time of the transfection, 200 ng of the plasmid DNA encoding FKBP12-Tankyrase(SAM) and 200 ng of one of the plasmid DNAs encoding fusion proteins composed of the fluorescent proteins and mTOR(FRB) were diluted with 30 μl of OptiMEM (manufactured by Life Technologies Corporation), and 1.2 μl of TurboFect Transfection Reagent (manufactured by Thermo Fisher Scientific Inc.) was added thereto and stirred. Then, the resultant was further mixed with 300 μl of the culture solution, subsequently added to the 293T cells, and observed 48 hours later.

[8] = molecular target: T3, mTOR(FRB) and FKBP12 interaction; assay: Degree of fluorescent focus (assembly) formation after rapamycin with TFG(PB1) (Example 9, Table 2); assay type: cell-based; set-up: key: ++: fluorescent foci were observed in 50% or less of the HeLaS3 cells; +: fluorescent foci were observed in the 293T cells expressing a larger amount of proteins than that in the HeLaS3 cells; details: fluorescent protein fused to mTOR(FRB), KO1 and dAG (AB) in 293T cells
[9] = system: interaction between KRas and cRaf; assay: EGF-dependent fluorescent foci near the cell membrane, Cos-7 cells (Example 23); assay type: cell-based; details: Cos-7 cells co-expressing p62(PB1)-KRas(WT) and AG-cRaf(R59A); 50 ng/ml; 37° C. for 30 minutes
Procedure: The cells were observed using a total internal reflection fluorescence microscopy system with arc lamp source (manufactured by Olympus Corporation, IX71-ARCEVA) capable of exciting only the vicinity of the cell membrane. Additionally, regarding the combination of pp62(PB1)-KRas (WT) with the phAG-cRaf (R59A), an image was obtained when no EGF was added. After that, EGF (manufactured by SIGMA CO.) was added to the cells to the final concentration of 50 ng/ml and left standing at 37° C. for 30 minutes. Then, the resultant was observed again.

[10] = system: interaction between HRas and cRaf; assay: Time course of fluorescent foci after EGF, HRas/cRaf (Example 28); assay type: cell-based; details: cells with p62(PB1)-HRas(WT) and AG-cRaf(R59A); 50 ng/ml; vicinity of the cell membrane
Procedure: EGF (manufactured by SIGMA CO.) was added thereto to the final concentration of 50 ng/ml. A measurement apparatus capable of detecting a fluorescent signal only in the vicinity of the cell membrane was used for the observation. Note that the observation was started 5 minutes before the EGF addition, and continued at 5-minute intervals for 30 minutes after the addition. The observation was made another 30 minutes thereafter. On the basis of the obtained image data, analysis was performed by the same method as that described in Example 11, and a graph was prepared by plotting a total fluorescence intensity of fluorescent foci (assemblies) against time. Note that, in the graph, the x axis represents time (minutes), provided that time when EGF was added is 0, and the y axis represents the total fluorescence intensity of fluorescent foci (assemblies).

T1 sequence (Q07817 1-209): as the sequence (Q07817 1-209) above

Molecule	degree of fluorescent focus formation, DGKd (SAM) [7]	degree of fluorescent focus formation, TEL (SAM) [7]	degree of fluorescent focus formation, Tankyrase (SAM) [7]	degree of fluorescent focus formation, P62 (PB1) [7]	also measured
CN(C)CC[C@H](CSc1ccccc1)Nc1ccc(S(=O)(=O)NC(=O)c2ccc(N3CCN(Cc4ccccc4-c4ccc(Cl)cc4)CC3)cc2)cc1[N+](=O)[O-] [ABT-737]					time when the total fluorescence luminance reached a half value [1]: approximately 80 minutes; time when the total fluorescence luminance reached a half value [2]: approximately 35 minutes
N#CC(=C(/N)Sc1ccccc1N)/C(C#N)=C(\N)Sc1ccccc1N [U0126, reference compound]					fluorescent foci after U0126 addition ([3]; same cells, 10 μM, added 14 minutes after EGF): the fluorescent foci were slowly decreased
NCCc1c[nH]cn1 [histamine]					fluorescent foci at the later time point ([4]; 490 seconds after the cytoplasm calcium ion concentration was decreased): extinguished; fluorescent focus formation after ligand addition ([4]; HeLaS3 cells expressing Calmodulin-AG and M13peptide-p62(PB1), 90 seconds after addition): fluorescent focus formation was detected
CC[C@H](C)C(=O)O[C@H]1CCC=C2C=C[C@H](C)[C@H](CC[C@@H]3C[C@@H](O)CC(=O)O3)[C@H]21 [mevastatin]					localization of the interaction between Rac1 and PBD [5]: the interaction took place only in the nuclei; interaction between Rac1 and RhoGDI [6]: reduced
Azami-Green [AG]	+++ (fluorescent foci were observed in 50% or more of the HeLaS3 cells)	+++ (fluorescent foci were observed in 50% or more of the HeLaS3 cells)	+++ (fluorescent foci were observed in 50% or more of the HeLaS3 cells)	+++ (fluorescent foci were observed in 50% or more of the HeLaS3 cells)	degree of fluorescent focus formation, TFG (PB1) [8]: ++ (fluorescent foci were observed in 50% or less of the HeLaS3 cells)
Kikume Green-Red [KikGR]	+++ (fluorescent foci were observed in 50% or more of the HeLaS3 cells)	+++ (fluorescent foci were observed in 50% or more of the HeLaS3 cells)	+++ (fluorescent foci were observed in 50% or more of the HeLaS3 cells)	+++ (fluorescent foci were observed in 50% or more of the HeLaS3 cells)	degree of fluorescent focus formation, TFG (PB1) [8]: ++ (fluorescent foci were observed in 50% or less of the HeLaS3 cells)
Kusabira-Orange 1 [KO1]	+++ (fluorescent foci were observed in 50% or more of the HeLaS3 cells)	+++ (fluorescent foci were observed in 50% or more of the HeLaS3 cells)	++ (fluorescent foci were observed in 50% or less of the HeLaS3 cells)	+++ (fluorescent foci were observed in 50% or more of the HeLaS3 cells)	degree of fluorescent focus formation, TFG (PB1) [8]: +
Midoriishi-Cyan1 [MiCy1]	+++ (fluorescent foci were observed in 50% or more of the HeLaS3 cells)	+++ (fluorescent foci were observed in 50% or more of the HeLaS3 cells)	+	+++ (fluorescent foci were observed in 50% or more of the HeLaS3 cells)	
dimeric Keima-Red [dKeima]	+++ (fluorescent foci were observed in 50% or more of the HeLaS3 cells)	+++ (fluorescent foci were observed in 50% or more of the HeLaS3 cells)	++ (fluorescent foci were observed in 50% or less of the HeLaS3 cells)	+++ (fluorescent foci were observed in 50% or more of the HeLaS3 cells)	
epidermal growth factor (NSDSECPLSHDGYCLHDGVCMYIEALDKYACNCVVGYIGERCQYRDLKWWELR; Epidermal growth factor; UniProt P01133 971-1023, looked up) [EGF]					assembly formation after EGF addition [9]: the assembly formation was observed at the cell membranes; fluorescent foci after EGF addition ([3]; 293 cells expressing p62(PB1)-ERK_substrate and AG-Pin1(ww)-NES, 50 ng/ml): fluorescent foci (assemblies) were significantly observed as time elapsed; interaction between HRas and cRaf after EGF addition [10]: took place by adding EGF
monomeric Keima-Red [mKeima]	+++ (fluorescent foci were observed in 50% or more of the HeLaS3 cells)	++ (fluorescent foci were observed in 50% or less of the HeLaS3 cells)	+	+++ (fluorescent foci were observed in 50% or more of the HeLaS3 cells)	
monomeric Kusabira-Orange 1 [mKO1]	+++ (fluorescent foci were observed in 50% or more of the HeLaS3 cells)	+++ (fluorescent foci were observed in 50% or more of the HeLaS3 cells)	+	+++ (fluorescent foci were observed in 50% or more of the HeLaS3 cells)	
